Data set [1] in a line: In vivo pharmacokinetic study in rats (i.v. or s.c.), FAC and payload in blood. Details: species or system rat. The settings on record: male, Sprague-Dawley, rat, in vivo, sc, 40 umol/kg. The protocol: (§1) Pharmacokinetic studies were conducted in male C57/B16 mice; male Sprague-Dawley rats; male Beagle dogs and male Cynomolgus monkeys. 3 animals per group were used for each study performed. All studies were performed in accordance with local animal welfare regulations.
[…] Serial 30 µL blood samples were collected via venipuncture of the tail vein in mouse, and via the cannulated jugular vein in rats at defined timepoints to 216 hours (into EDTA coated tubes).
(§2) Each blood sample was precipitated with acetonitrile containing internal standard; samples were mixed and centrifuged (20 minutes 4000 RPM at 4° C.). Supernatant was transferred to a microwell plate and evaporated under nitrogen at 60° C. Residue was resuspended in acetonitrile/water (7:3 v/v); plate sealed and transferred to an ultrasonic bath for 3 minutes, prior to analysis. Quantification was performed by LC-MS/MS (SciexAP16500 Q-trap, Shimadzu Nexera X2) using a Phenomenex Polar RP analytical column (2.5 μm particle size; 50×2 mm). The mobile phase consisted of solvent A (0.1% formic acid in water) and solvent B (0.1% formic acid in acetonitrile). The fatty acid conjugate and API were detected using multiple reaction monitoring.
(§3) Data analysis and calculation of non-compartmental pharmacokinetic parameters was
(§4) performed using an in-house analysis. Following intravenous administration whole blood clearance was calculated by the dose administered divided by AUC0-inf. Volume of distribution at steady state was calculated as MRT*CL, where MRT is the mean residence time, calculated by AUMC0-inf/AUC0-inf. The half-life (t1/2) of the terminal elimination phase was calculated by 0.693/λ. For both intravenous and subcutaneous administration, the systemic exposures were determined by calculating the area under the blood concentration time curve (AUC) from time zero to the last observed quantifiable concentration (AUClast) by using the linear trapezoidal method and normalised to dose. Extrapolated AUC (AUC0-inf) is calculated by addition of AUClast and AUCtlast-inf; where AUCtlast-inf is calculated based on Clast/λ. The slope of the terminal elimination phase was estimated by linear regression of the terminal data points (minimum 3 points) from a natural log concentration versus time plot of the data. Bioavailability was calculated as the dose normalized ratio of […] AUCinf to intravenous AUCinf (100*[SC AUCinf/SC dose]/[IV AUCinf/IV dose]). Following subcutaneous administration Cmax is calculated as the average maximum observed peak concentration and Tmax is the time associated with the determined Cmax.
For PK experiments, non-tumor bearing mice or rats were treated once (10 mL/kg) with a compound either i.v. or s.c. Serial blood samplings from the tail vein (5-20 μl) were collected during the course of the experiment. For PK/PD experiments in tumor-bearing mice, compound was administered once (10 mL/kg) either i.v. or s.c. Animals were randomized into groups of n=3 and tissue samples were collected at several time points. At the times indicated, animals were anaesthetized by exposure to 2-3% v/v isoflurane in medical oxygen. They were sacrificed without recovering from anesthetic after blood sampling into commercially prepared EDTA coated tubes (Milian, cat #TOM-14C) in order to extract plasma. The tissues were excised, weighted and rapidly frozen in liquid nitrogen. Later, tumors were cryogenic dry pulverized with the CryoPrep™ system (model CP-02, Covaris). For efficacy experiments in ectopic tumor-bearing mice, animals were randomized into groups of n=6 for a mean tumor size of 100 mm^3 and compound was administered either i.v. q3w or s.c. q2w. When implanted in brain, animals were randomized into groups of n=4 for a mean bioluminescence of 1.0-2.0E+06 [p/s]/[ρW/cm^2] and compound was administered i.v. qw. Tumor response were reported with the measures of tumor volumes or bioluminescence from the treatment start. […]

The nature of data set [2]: In vivo pharmacokinetic study in Cynomolgus monkeys (i.v. or s.c.), FAC and payload in blood. Set-up: species or system cynomolgus monkey. Here is the method:
as §1
(§5) Between 1 and 10 µM/kg FAC was administered either intravenously or subcutaneously as a solution in 10 mM PBS with NaOH (dose volume 0.4 mL/kg in dog and monkey s.c. and 0.2 mL/kg i.v. in monkey). Serial 100 µL blood samples were collected via venipuncture of the cephalic vein at defined timepoints to 336 hours (into EDTA coated tubes).
as §2, §3, §4

Data set [3] is described as follows: In vivo pharmacokinetic study in mice (i.v. or s.c.), FAC and payload in blood. Details: species or system mouse. Conditions: male, C57/B16, mouse, in vivo, sc, 40 umol/kg.
The target of the next data set is T1, BTK (Homo sapiens, UniProt Q06187).
T1 construct: endogenous in cells; host or cells: TMD8 tumour xenografts in SCID/BEIGE mice
The data set can be described thus: PK/PD in TMD8 tumor-bearing mice: BTK levels in tumor by Meso Scale Discovery. Conditions: I.v.; 40 umol/kg. It counts as in vivo, mouse. Here is the method: (§6) All animal experiments were performed according to procedures covered by permit number BS-1974, BS-1975 and BS-2904 issued by the Kantonales Veterinäramt Basel-Stadt and strictly adhered to the Eidgenössisches Tierschutzgesetz and the Eidgenössische Tierschutzverordnung. Female Sprague Dawley rat were obtained from Charles Rivers (Germany), female Balb/c mice from Charles Rivers (Italy) and female SCID/BEIGE (C.B-Igh-1b/GbmsTac-Prkdcscid-Lystbg N7) mice from Taconic. All the animals were housed in a pathogen-controlled environment with access to food and water ad libitum and they were identified with transponders.
(§7) Subcutaneous TMD8 tumors were induced by injecting tumor cells expanded in vitro in the right flank of SCID/BEIGE mice. As soon as the injection was finished, antagonization (naloxone, flumazenil and atipamezole injected s.c.) was injected and mice are put on a warming pad for recovery and carefully checked during that time.
(§8) For PK experiments, non-tumor bearing mice or rats were treated once (10 mL/kg) with a compound either i.v. or s.c. Serial blood samplings from the tail vein (5-20 μl) were collected during the course of the experiment. For PK/PD experiments in tumor-bearing mice, compound was administered once (10 mL/kg) either i.v. or s.c. Animals were randomized into groups of n=3 and tissue samples were collected at several time points. At the times indicated, animals were anaesthetized by exposure to 2-3% v/v isoflurane in medical oxygen. They were sacrificed without recovering from anesthetic after blood sampling into commercially prepared EDTA coated tubes (Milian, cat #TOM-14C) in order to extract plasma. The tissues were excised, weighted and rapidly frozen in liquid nitrogen. Later, tumors were cryogenic dry pulverized with the CryoPrep™ system (model CP-02, Covaris). For efficacy experiments in ectopic tumor-bearing mice, animals were randomized into groups of n=6 for a mean tumor size of 100 mm^3 and compound was administered either i.v. q3w or s.c. q2w. When implanted in brain, animals were randomized into groups of n=4 for a mean bioluminescence of 1.0-2.0E+06 [p/s]/[ρW/cm^2] and compound was administered i.v. qw. Tumor response were reported with the measures of tumor volumes or bioluminescence from the treatment start. Concentrations of compound in blood and tissues were determined simultaneously by UPLC/MS-MS. BTK and IL-10 levels in tumor were determined by Meso Scale Discovery (MSD).

For a further data set, the system named is TMD8 tumors. Nature of the data set: Efficacy in ectopic (subcutaneous) TMD8 tumor-bearing SCID/BEIGE mice, tumor volume. It counts as in vivo, mouse. The settings on record: I.v. Here is the method:
as §6, §7, §8

Data set [4] in a line: In vivo pharmacokinetic study in Beagle dogs (i.v. or s.c.), FAC and payload in blood. Set-up: species or system dog. The protocol: as §1, §5, §2, §3, §4

The text below walks through data of patent US20240216513A1, “FATTY ACID-BIFUNCTIONAL DEGRADER CONJUGATES AND THEIR METHODS OF USE” (Novartis AG, priority 2021, published 2024).

T1 sequence (Q06187 whole entry): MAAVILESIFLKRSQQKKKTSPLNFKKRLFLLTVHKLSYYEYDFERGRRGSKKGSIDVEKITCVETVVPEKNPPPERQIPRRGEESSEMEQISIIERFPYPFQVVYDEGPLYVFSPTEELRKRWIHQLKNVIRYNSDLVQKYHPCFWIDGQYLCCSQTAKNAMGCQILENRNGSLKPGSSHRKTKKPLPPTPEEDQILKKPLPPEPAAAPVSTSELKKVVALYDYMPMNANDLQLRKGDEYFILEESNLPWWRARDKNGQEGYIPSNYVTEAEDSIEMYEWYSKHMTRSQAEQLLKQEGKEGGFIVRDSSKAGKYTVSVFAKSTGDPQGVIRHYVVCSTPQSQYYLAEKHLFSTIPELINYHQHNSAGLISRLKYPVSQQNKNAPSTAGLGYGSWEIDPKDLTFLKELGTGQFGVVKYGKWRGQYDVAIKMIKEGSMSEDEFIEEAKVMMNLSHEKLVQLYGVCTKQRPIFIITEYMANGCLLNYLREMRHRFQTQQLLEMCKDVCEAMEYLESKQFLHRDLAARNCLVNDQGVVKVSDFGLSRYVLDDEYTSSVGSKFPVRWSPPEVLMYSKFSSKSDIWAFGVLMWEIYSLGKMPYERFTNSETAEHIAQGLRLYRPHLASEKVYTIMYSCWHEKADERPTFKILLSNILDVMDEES

For `CCCCCCCCCCCC(CCCCCCCCCCC(=O)O)(C(=O)O)C(=O)NCCOCCOCCOCCOCCOCCOCCOCCOCCOCCOCCOCCOCCC(=O)NCC(=O)OC(C)(C)c1ccc(C(=O)Nc2cc(F)cc(-c3ncnc4[nH]c(-c5ccc(CN6CCC(OC7CCN(CCn8cccc(CN9CCC(=O)NC9=O)c8=O)CC7)CC6)cc5)cc34)c2C)c(F)c1` (stereo not drawn) [Compound B1, 2-((44-(4-((3-(6-(4-((4-((1-(2-(3-((2,4-Dioxotetrahydropyrimidin-1(2H)-yl)methyl)-2-oxopyridin-1(2H)-yl)ethyl)piperidin-4-yl)oxy)piperidin-1-yl)methyl)phenyl)-7H-pyrrolo[2,3-d]pyrimidin-4-yl)-5-fluoro-2-methylphenyl)carbamoyl)-3-fluorophenyl)-44-methyl-39,42-dioxo-3,6,9,12,15,18,21,24,27,30,33,36,43-tridecaoxa-40-azapentatetracontyl)carbamoyl)-2-undecyltridecanedioic acid], the Cmax worked out at 11 µM in data set [1]; 3.8 µM in data set [2] (male, cynomolgus monkey, whole blood, sc, Cyno, Conj. s.c. dose 1 umol/kg, read-out: Lipophilic Acid Conjugate Cmax); 71 µM in data set [3]; 37.5 µM in data set [4] (male, Beagle, whole blood, sc, Dog, Conj. s.c. dose 10 umol/kg, read-out: Lipophilic Acid Conjugate Cmax). In addition, the AUC in data set [1] (Lipophilic Acid Conjugate AUC) is 667 µM·h; in data set [2] (male, cynomolgus monkey, whole blood, sc, Cyno, Conj. s.c. dose 1 umol/kg, read-out: Lipophilic Acid Conjugate AUC) it was 26.1 µM·h; in data set [3], 3860 µM·h; in data set [4] (male, Beagle, whole blood, sc, Dog, Conj. s.c. dose 10 umol/kg, read-out: Lipophilic Acid Conjugate AUC), 304 µM·h. Moreover, the “Fatty Acid Conjugate C0-uM d.n. Cyno” value in data set [2] (analyte conjugate, d.n., Conj. i.v. dose 1 umol/kg) came out at 9.9 µM. In addition, the “Duration of BTK degradation in mouse ≥90%” value on BTK is 10 days. Further, in the data set with TMD8 tumors, the “Dosing to achieve sustained ~90% regression” value is listed as 40 umol/kg q3w. Further, the “Fatty Acid Conjugate C0-uM d.n. Dog” value in data set [4] (analyte conjugate, d.n., Conj. i.v. dose 10 umol/kg) worked out at 3.3 µM.
